# Measured values from US9090686B2, “Antibodies for the treatment of HIV” (Pierre Fabre Medicament, priority 2009, dated 2015).
# Residue numbers refer to the chain shown, from its start.
# B1: 515H7: murine anti-CXCR4 monoclonal antibody; light chain variable domain SEQ ID No. 7, heavy chain variable domain SEQ ID No. 8 (antibody, listed as Mus musculus, V domains shown)
# VH: EVNLVESGGGLVQPGGSLRLSCATSGFTFTDNYMSWVRQPPGKALEWLGFIRNKANGYTTDYSASVRGRFTISRDNSQSILYLQMNALRAEDSATYYCARDVGSNYFDYWGQGTTLTVSS
# VL: DIVMSQSPSSLAVSAGEKVTMSCKSSQSLFNSRTRKNYLAWYQQKPGQSPKLLIYWASARDSGVPARFTGSGSETYFTLTISRVQAEDLAVYYCMQSFNLRTFGGGTKLEIK
# B2: 301aE5: murine anti-CXCR4 monoclonal antibody; light chain variable domain SEQ ID No. 34, heavy chain variable domain SEQ ID No. 35 (antibody, listed as Mus musculus, V domains shown)
# VH: QVQLKESGPGLVAPSQSLSITCTVSGFSLTDYGVYWVRQPPGKGLEWLGMIWGDGTTDYNSALKSRLSISKDNSKSQVFLKMNTLQTDDTARYYCARGRQFGFDYWGQGTTLTVSS
# VL: B1 VL with S22R, Y55F, A59I, D61E, A66D, E74G, Y76D, R83S, M95K, F98Y
# B3: c515H7: chimeric antibody 515H7: murine variable domains fused to human Ckappa and IgG1/IgG2/IgG4 constant domains; isotype tested not stated (antibody, V domains shown)
# VH: B1 VH
# VL: B1 VL
# Columns and labels:
# [1] = system: HIV-1 primary isolate 89.6 (dual X4/R5 virus); test: Single cycle neutralization assay in human PBMC, isolate 89.6; type: cell-based
# Experimental: This assay is performed in 36 h using primary isolate 89.6 concentrated and diluted accordingly to allow the detection 2% infected CD4 T lymphocytes after 2 days of infection.
# (§1) Twenty-five microliters of various dilutions of Mabs 515H7, c515H7 and 301aE5 were incubated for 1 h at 37° C. with 25 μl of virus. Human PBMC (25 μl) at 20×10^6 cells/ml were added to the Mab/virus mixture in a 96-well plate (U-bottom, Costar 3599) and cultured for 36 h in RPMI 1640 10% FCS and 20 U/ml IL-2 (R&D Systems, Minneapolis, Minn.).
# (§2) After 2 days of culture, HIV-infected lymphocytes were detected by intracellular staining of viral p24 Ag. Cells were fixed and permeabilized using both Cytofix/Cytoperm and Perm/Wash kits (BD Biosciences) according to the manufacturer and stained with a fluorescent anti-p24 Mab (FITC- or PE-anti-p24, clone KC57; Beckman Coulter/Immunotech, Hialeah, FL) used at a 1/160 dilution in Perm/Wash solution added for 15 min at 4° C. After washing in PBS with 3% FBS, PBMC were diluted in 300 μl of PBS before flow cytometry analysis (LSRII; BD Biosciences) with DIVA software (BD Biosciences). The percentage of p24-positive cells in the different samples was determined by gating 20,000 events on a living cell population identified by forward- and side-scatter parameters. The living cell subsets were analyzed with the live/dead solution kit (Invitrogen). The p24 Ag-positive value was obtained after subtraction of background events in mock-infected cells.
# (§3) The percent of neutralization was defined as the reduction of p24-positive cells compared with control infected wells with no Mab. The neutralizing titer was defined as the concentration of antibody (interpolated between successive dilutions performed in triplicate) that allows a 90% decrease in the percentage of infected cells.
# human CXCR4 = human CXCR4 (Homo sapiens, UniProt P61073); test: FACS binding to NIH3T3-hCXCR4 transfected cells; parameters: expressed in transfected cells; host or cells: NIH3T3 (mouse fibroblasts); details: for binding to human CXCR4-NIH3T3 transfected cell line (in words): FACS; for NIH3T3-CXCR4 (MFI): Mab 10 μg/ml, Mean Fluorescence Intensity by FACS
# Experimental: In this experiment, the specific binding to human CXCR4 (hCXCR4) of anti-CXCR4 Mabs 515H7 and 301aE5 was examined by FACS analysis.
# (§4) NIH3T3 and NIH3T3-hCXCR4 transfected cells were incubated with 10 μg/ml of monoclonal antibodies 515H7 and 301aE5. The cells were then washed with 1% BSA/PBS/0.01% NaN3. Next, Alexa-labeled secondary antibodies were added to the cells and were allowed to incubate at 4° C. for 20 min. The cells were then washed again two times. Following the second wash, FACS analysis was performed.
# as §4, with “NIH3T3-hCXCR4” for “NIH3T3 and NIH3T3-hCXCR4”, “a dose range” for “10 μg/ml”, “antibody c515H7 from 0 μg/ml to 10 μg/ml.” for “antibodies 515H7 and 301aE5.”, “1%BSA/PBS/0.01%” for “1% BSA/PBS/0.01%”
# (§5) NIH3T3, NIH3T3-hCXCR4 transfected were incubated with 0 to 10 μg/mL of humanized Mabs 515H7 (hz515H7 VH1 D76N VL2, hz515H7 VH1 D76N VL2.1, hz515H7 VH1 D76N VL2.2, hz515H7 VH1 D76N VL2.3) for 20 min at 4° C. in the dark in 100 μl Facs buffer. After 3 washing in Facs buffer, cells were incubated with the secondary antibody, a goat anti-human Alexa 488 (dilution 1/500), for 20 minutes at 4° C. in the dark. After 3 washing in Facs buffer, propidium iodide was added in each well and only viable cells were analyzed by Facs. At least 5000 viable cells were assessed to evaluate the mean value of fluorescence intensity for each condition.
# NIH3T3 cells = test: FACS binding to parent NIH3T3 cells; details: for binding to parent NIH3T3 cells (in words): FACS; for NIH3T3 (MFI): Mab 10 μg/ml, Mean Fluorescence Intensity by FACS
# Experimental: as §4
# as §4, with “NIH3T3-hCXCR4” for “NIH3T3 and NIH3T3-hCXCR4”, “a dose range” for “10 μg/ml”, “antibody c515H7 from 0 μg/ml to 10 μg/ml.” for “antibodies 515H7 and 301aE5.”, “1%BSA/PBS/0.01%” for “1% BSA/PBS/0.01%”
# as §5
# [2] = system: HIV-1 X4 primary isolate KON; test: Single cycle neutralization assay in human PBMC, isolate KON; type: cell-based; details: for KON % inhibition of infected cells 90: IC for 90% inhibition, human PBMC
# Experimental: This assay is performed in 36 h using primary isolates KON, MN and 92UG024 concentrated and diluted accordingly to allow the detection 2% infected CD4 T lymphocytes after 2 days of infection.
# as §1
# as §2, with “Fla.)” for “FL)”
# as §3
# This assay was performed in 36 h using primary isolate KON concentrated and diluted accordingly to allow the detection 2% infected CD4 T lymphocytes after 2 days of infection.
# […] Human PBMC (25 p.1) at 20×10^6 cells/ml were added to the Mab/virus mixture in a 96-well plate (U-bottom, Costar 3599) and cultured for 36 h in RPMI 1640 10% FCS and 20 U/ml IL-2 (R&D Systems, Minneapolis, Minn.).
# as §3, with “[…]” for “a 90%”
# [3] = system: HIV-1 X4 primary isolate KON; test: as above; type: cell-based; details: IC for 80% inhibition
# human CXCR4, sequence (P61073 whole entry): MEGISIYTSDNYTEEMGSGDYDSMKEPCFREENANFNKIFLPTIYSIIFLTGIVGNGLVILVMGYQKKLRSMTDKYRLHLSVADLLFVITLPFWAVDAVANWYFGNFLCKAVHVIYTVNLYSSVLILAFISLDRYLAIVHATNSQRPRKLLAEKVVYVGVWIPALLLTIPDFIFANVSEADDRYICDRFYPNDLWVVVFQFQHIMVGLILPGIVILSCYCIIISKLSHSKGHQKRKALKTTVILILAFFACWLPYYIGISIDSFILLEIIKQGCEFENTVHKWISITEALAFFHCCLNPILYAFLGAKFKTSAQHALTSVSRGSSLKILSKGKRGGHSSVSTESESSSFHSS
Molecule,inhibition of HIV-1 89.6 primary isolate replication in PBMC (in words) [1],binding to human CXCR4-NIH3T3 transfected cell line (in words) (human CXCR4),NIH3T3-CXCR4 (MFI) (human CXCR4),binding to parent NIH3T3 cells (in words) (NIH3T3 cells),NIH3T3 (MFI) (NIH3T3 cells),inhibition of HIV-1 X4 KON primary isolate replication in PBMC (in words) [2],KON % inhibition of infected cells 90 [2] [µg/mL],KON % inhibition of infected cells 80 [3] [µg/mL]
B1,able to inhibit,bind specifically,2752,no recognition,16,able to inhibit,15,8
B2,able to inhibit,bind specifically,1367,no recognition,21,able to inhibit,>150,>150
B3,able to inhibit,bound specifically,–,No binding was detected,–,able to inhibit,20,10
